Experimental data published in US20080050387A1 (published 2008).

Key:
[1] = target: T1, testicular receptor 4 (TR4) (Homo sapiens (Human), UniProt P49116 1-596, limits assumed); test: CytoTrap Sos yeast two-hybrid, growth of cdc25H on SD/Gal(-LU) at 37° C
T1 construct: hSos fusion (pSos-TR4) in yeast; also called pSos-TR4
T1 sequence: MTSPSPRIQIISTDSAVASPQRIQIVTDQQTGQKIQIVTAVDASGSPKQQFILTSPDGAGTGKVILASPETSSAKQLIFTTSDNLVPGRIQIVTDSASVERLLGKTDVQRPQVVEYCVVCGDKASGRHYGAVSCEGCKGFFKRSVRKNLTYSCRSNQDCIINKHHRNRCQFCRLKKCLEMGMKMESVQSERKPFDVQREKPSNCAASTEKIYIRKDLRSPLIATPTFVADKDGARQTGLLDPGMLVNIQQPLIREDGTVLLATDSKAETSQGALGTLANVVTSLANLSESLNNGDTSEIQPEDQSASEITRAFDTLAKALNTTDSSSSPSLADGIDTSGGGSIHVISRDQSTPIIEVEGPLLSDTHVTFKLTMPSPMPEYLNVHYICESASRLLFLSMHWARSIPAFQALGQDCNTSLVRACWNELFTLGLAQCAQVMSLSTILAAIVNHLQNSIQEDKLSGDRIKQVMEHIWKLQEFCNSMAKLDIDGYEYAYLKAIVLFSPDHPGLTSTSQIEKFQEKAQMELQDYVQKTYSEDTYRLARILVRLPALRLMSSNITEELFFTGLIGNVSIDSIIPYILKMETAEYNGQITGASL

ARA70 = target: T2, ARA70 (UniProt Q13772 1-614, limits assumed); test: as above
T2 construct: also called pSos-ARA70; pSos-APA70
T2 sequence (looked up): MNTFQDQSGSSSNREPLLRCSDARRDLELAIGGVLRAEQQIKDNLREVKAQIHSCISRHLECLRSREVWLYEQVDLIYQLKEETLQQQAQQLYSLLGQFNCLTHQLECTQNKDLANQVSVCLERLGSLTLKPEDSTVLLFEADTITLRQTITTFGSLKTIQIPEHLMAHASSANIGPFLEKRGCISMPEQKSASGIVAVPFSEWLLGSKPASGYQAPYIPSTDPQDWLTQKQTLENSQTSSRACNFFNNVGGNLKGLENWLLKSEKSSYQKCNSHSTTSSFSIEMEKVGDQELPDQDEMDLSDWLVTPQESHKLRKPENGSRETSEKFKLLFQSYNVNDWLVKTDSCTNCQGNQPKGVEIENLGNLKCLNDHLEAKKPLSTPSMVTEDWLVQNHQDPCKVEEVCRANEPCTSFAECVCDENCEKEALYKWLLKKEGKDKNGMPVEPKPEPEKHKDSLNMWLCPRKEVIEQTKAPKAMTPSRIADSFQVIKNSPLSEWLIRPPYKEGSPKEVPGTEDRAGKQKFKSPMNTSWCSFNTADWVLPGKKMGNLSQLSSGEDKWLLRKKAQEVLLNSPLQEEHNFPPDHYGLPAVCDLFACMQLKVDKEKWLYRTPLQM

B1: ARA67 clone of the CytoTrap screen, amino acids 20-585 of PAT1 (pMyr-ARA67) (other)
chain: AVVDNYIRSRRDIRSLPENIQFDVYYKLYQQGRLCQLGSEFCELEVFAKVLRALDKRHLLHHCFQALMDHGVKVASVLAYSFSRRCSYIAESDAAVKEKAIQVGFVLGGFLSDAGWYSDAEKVFLSCLQLCTLHDEMLHWFRAVECCVRLLHVRNGNCKYHLGEETFKLAQTYMDKLSKHGQQANKAALYGELCALLFAKSHYDEAYKWCIEAMKEITAGLPVKVVVDVLRQASKACVVKREFKKAEQLIKHAVYLARDHFGSKHPKYSDTLLDYGFYLLNVDNICQSVAIYQAALDIRQSVFGGKNIHVATAHEDLAYSSYVHQYSSGKFDNALFHAERAIGIITHILPEDHLLLASSKRVKALILEEIAIDCHNKETEQRLLQEAHDLHLSSLQLAKKAFGEFNVQTAKHYGNLGRLYQSMRKFKEAEEMHIKAIQIKEQLLGQEDYEVALSVGHLASLYNYDMNQYENAEKLYLRSIAIGKKLFGEGYSGLEYDYRGLIKLYNSIGNYEKVFEYHNVLSNWNRLRDRQYSVTDALEDVSTSPQSTEEVVQSFLISQNVEGPSC
notes: The clone matched the DNA encoding aa 20-585 of PAT1 at 99.6% identity; also called pMyr-ARA67/PAT1
B1: no binding [1]; no binding (ARA70).
